# Measured values published in IntAct's records for PubMed 17974954.
# B1: Tyrosine-protein phosphatase non-receptor type 1 (Homo sapiens), P18031 (parent)
# chain: MEMEKEFEQIDKSGSWAAIYQDIRHEASDFPCRVAKLPKNKNRNRYRDVSPFDHSRIKLHQEDNDYINASLIKMEEAQRSYILTQGPLPNTCGHFWEMVWEQKSRGVVMLNRVMEKGSLKCAQYWPQKEEKEMIFEDTNLKLTLISEDIKSYYTVRQLELENLTTQETREILHFHYTTWPDFGVPESPASFLNFLFKVRESGSLSPEHGPVVVHCSAGIGRSGTFCLADTCLLLMDKRKDPSSVDIKKVLLEMRKFRMGLIQTADQLRFSYLAVIEGAKFIMGDSSVQDQWKELSHEDLEPPPEHIPPPPRPPKRILEPHNGKCREFFPNHQWVKEETQEDKDCPIKEEKGSPLNAAPYGIESMSQDTEVRSRVVGGSLRGAQAASPAKGEPSLPEKDEDHALSYWKPFLVNMCVATVLTAGAYLCYRFLFNSNT
# Variants of: B1
# Conditions: with src_human SRC
row,Variant,effect of a mutation on the interaction
1,C215S,disrupting interaction
